Results reported in article PMC4868709 (2015).

B1: purified I domain of CD147 (domain or fragment)
chain: PRVKAVKSSEHINEGETAMLVCKSESVPPVTDWAWYKITDSEDKALMNGSESRFFVSSSQGRSELHIENLNMEADPGQYRCNGTSSKGSDQAIIT
B2: purified C2 domain of CD147 (domain or fragment)
chain: AAGTVFTTVEDLGSKILLTCSLNDSATEVTGHRWLKGGVVLKEDALPGQKTEFKVDSDDQWGEYSCVFLPEPMGTANIQLHG
B3: purified His-tagged Ig-like domains of CD147 (CD147ECP-his) (domain or fragment)
chain: AAGTVFTTVEDLGSKILLTCSLNDSATEVTGHRWLKGGVVLKEDALPGQKTEFKVDSDDQWGEYSCVFLPEPMGTANIQLHGPPRVKAVKSSEHINEGETAMLVCKSESVPPVTDWAWYKITDSEDKALMNGSESRFFVSSSQGRSELHIENLNMEADPGQYRCNGTSSKGSDQAIITLRVRSHLAAL

target: purified Annexin A2 (UniProt P07355 1-339); assay: SPR
Sequence (P07355 whole entry): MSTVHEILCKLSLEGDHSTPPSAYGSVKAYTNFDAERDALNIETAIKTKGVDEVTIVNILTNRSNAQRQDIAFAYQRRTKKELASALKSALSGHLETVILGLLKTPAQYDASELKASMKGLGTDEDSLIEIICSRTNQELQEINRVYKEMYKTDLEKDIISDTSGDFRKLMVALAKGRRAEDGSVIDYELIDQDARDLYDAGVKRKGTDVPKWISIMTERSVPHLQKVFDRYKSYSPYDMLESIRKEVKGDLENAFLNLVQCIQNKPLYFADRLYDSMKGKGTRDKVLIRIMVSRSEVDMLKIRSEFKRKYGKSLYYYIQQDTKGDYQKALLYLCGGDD

In order of rising koff:
1. B1  0.00307 s⁻¹
2. B2  1.14 s⁻¹
3. B3  1.14 s⁻¹
